Results taken from the Immune Epitope Database (IEDB).

How the values were obtained:
Experiment in all cases: IEDB peptide-MHC binding, purified MHC/competitive/radioactivity; filed as Kd, often an IC50 or EC50 that approximates it; ≥ and ≤ were set here for values at or beyond the usual limits of such assays
HLA-A*11:01 = target: HLA-A*11:01
HLA-A*68:01 = target: HLA-A*68:01
HLA-A*33:01 = target: HLA-A*33:01
HLA-A*03:01 = target: HLA-A*03:01
HLA-A*31:01 = target: HLA-A*31:01
[1] = source organism: SARS coronavirus Tor2
[2] = source organism: Vaccinia virus WR
[3] = source organism: Dengue virus 1 Nauru/West Pac/1974
[4] = source organism: Dengue virus 4 Philippines/H241/1956
[5] = source organism: Mammarenavirus machupoense
[6] = source organism: Dengue virus 3 Martinique/1243/1999
[7] = source organism: Dengue virus 2 Jamaica/1409/1983
[8] = source organism: Dengue virus 1 Brazil/97-11/1997
[9] = source organism: Mammarenavirus whitewaterense
[10] = source organism: Dengue virus 4 Dominica/814669/1981
[11] = source organism: Mammarenavirus guanaritoense
[12] = source organism: Vaccinia virus Copenhagen

Work on QQQGQTVTKK yielded a Kd (HLA-A*11:01; [1]) of 0.407 µM, a Kd (HLA-A*68:01; [1]) of 8.24 µM and a Kd (HLA-A*33:01; [1]) of no less than 70 µM. The Kd (HLA-A*03:01; [1]) was 6.44 µM and the Kd (HLA-A*31:01; [1]) was 13.7 µM.

SIRPRVTKQY gave a Kd (HLA-A*11:01; [2]) of 9.16 µM, a Kd (HLA-A*68:01; [2]) of 8.01 µM and a Kd (HLA-A*33:01; [2]) of no less than 70 µM. For the same sequence, the Kd (HLA-A*03:01; [2]) was 0.884 µM and the Kd (HLA-A*31:01; [2]) was 6.27 µM.

Work on DSYTQVCDHR yielded a Kd (HLA-A*33:01; [3]) of 1.82 µM.

With FLELKRGIYK the Kd (HLA-A*11:01; [2]) was 0.00119 µM, the Kd (HLA-A*68:01; [2]) was 0.0891 µM and the Kd (HLA-A*33:01; [2]) was 0.945 µM. It also gave a Kd (HLA-A*03:01; [2]) of 0.00484 µM and a Kd (HLA-A*31:01; [2]) of 0.12 µM.

YVLGIFLRK was tested, and the Kd (HLA-A*11:01; [4]) was 0.00988 µM and the Kd (HLA-A*03:01; [4]) was 0.00122 µM.

For YVNHTLTGQH, the Kd (HLA-A*11:01; [5]) was no less than 69.7 µM, the Kd (HLA-A*68:01; [5]) was no less than 70.1 µM and the Kd (HLA-A*33:01; [5]) was 0.0295 µM. For the same sequence, the Kd (HLA-A*03:01; [5]) was no less than 70 µM and the Kd (HLA-A*31:01; [5]) was no less than 70 µM.

For YVMNIERQDY, the Kd (HLA-A*11:01; [2]) was 19 µM, the Kd (HLA-A*68:01; [2]) was 0.189 µM and the Kd (HLA-A*33:01; [2]) was no less than 23.3 µM. It also gave a Kd (HLA-A*03:01; [2]) of no less than 70.1 µM and a Kd (HLA-A*31:01; [2]) of 10.2 µM.

For VFAQVKQMYK, the Kd (HLA-A*11:01; [1]) was 0.0606 µM, the Kd (HLA-A*68:01; [1]) was 0.179 µM and the Kd (HLA-A*33:01; [1]) was 0.863 µM. It also gave a Kd (HLA-A*03:01; [1]) of 0.0665 µM and a Kd (HLA-A*31:01; [1]) of 0.124 µM.

With KIMSIGFEAR the Kd (HLA-A*11:01; [2]) was 0.0362 µM, the Kd (HLA-A*68:01; [2]) was 0.0881 µM and the Kd (HLA-A*33:01; [2]) was 0.562 µM. The Kd (HLA-A*03:01; [2]) was 0.175 µM and the Kd (HLA-A*31:01; [2]) was 0.00606 µM.

For HAKYMVTDK, the Kd (HLA-A*11:01; [2]) was 5.81 µM, the Kd (HLA-A*68:01; [2]) was 0.18 µM and the Kd (HLA-A*33:01; [2]) was 14.3 µM. It also gave a Kd (HLA-A*03:01; [2]) of 0.452 µM and a Kd (HLA-A*31:01; [2]) of 5.06 µM.

With QIFNEDTSYY the Kd (HLA-A*11:01; [2]) was 0.725 µM, the Kd (HLA-A*68:01; [2]) was 0.0117 µM and the Kd (HLA-A*33:01; [2]) was no less than 70 µM. The Kd (HLA-A*03:01; [2]) was 1.42 µM and the Kd (HLA-A*31:01; [2]) was no less than 35.7 µM.

LLAISAVYFK showed a Kd (HLA-A*11:01; [2]) of 0.0119 µM, a Kd (HLA-A*68:01; [2]) of 0.00252 µM and a Kd (HLA-A*33:01; [2]) of 1.03 µM. It also gave a Kd (HLA-A*03:01; [2]) of 0.00335 µM and a Kd (HLA-A*31:01; [2]) of 0.379 µM.

With EECLRRRVTR the Kd (HLA-A*33:01; [4]) was 0.779 µM.

ATYLGPQFCK showed a Kd (HLA-A*11:01; source organism: Mammarenavirus lassaense) of 0.00325 µM.

In the case of TYLALIATFK, the Kd (HLA-A*33:01; [6]) is reported as 0.0699 µM.

MWTLMYFHR was tested, and the Kd (HLA-A*33:01; [7]) was 0.00151 µM and the Kd (HLA-A*31:01; [7]) was 0.00783 µM.

For TTIFAGHLK, the Kd (HLA-A*11:01; [8]) was 0.0307 µM and the Kd (HLA-A*68:01; [8]) was 0.0254 µM.

Sequence SSFIVPEFAK has a Kd (HLA-A*11:01; [2]) of 0.000534 µM, a Kd (HLA-A*68:01; [2]) of 0.00223 µM and a Kd (HLA-A*33:01; [2]) of 9.27 µM. It also gave a Kd (HLA-A*03:01; [2]) of 0.0374 µM and a Kd (HLA-A*31:01; [2]) of 9.4 µM.

IINFTISMR was tested, and the Kd (HLA-A*11:01; [2]) was 0.0492 µM, the Kd (HLA-A*68:01; [2]) was 0.00379 µM and the Kd (HLA-A*33:01; [2]) was 0.0981 µM. It also gave a Kd (HLA-A*03:01; [2]) of 0.0413 µM and a Kd (HLA-A*31:01; [2]) of 0.00223 µM.

For VSVDAMIHK, the Kd (HLA-A*11:01; [2]) was 0.00246 µM, the Kd (HLA-A*68:01; [2]) was 1.45 µM and the Kd (HLA-A*33:01; [2]) was no less than 31.9 µM. It also gave a Kd (HLA-A*03:01; [2]) of 1.82 µM and a Kd (HLA-A*31:01; [2]) of 7.14 µM.

Sequence CAAYYFMKFR has a Kd (HLA-A*11:01; [1]) of 0.065 µM, a Kd (HLA-A*68:01; [1]) of 0.0705 µM and a Kd (HLA-A*33:01; [1]) of 0.141 µM. The Kd (HLA-A*03:01; [1]) was 0.209 µM and the Kd (HLA-A*31:01; [1]) was 0.0109 µM.

RSCSYKIGHH was tested, and the Kd (HLA-A*11:01; [9]) was 17.2 µM, the Kd (HLA-A*68:01; [9]) was no less than 50.9 µM and the Kd (HLA-A*33:01; [9]) was no less than 70 µM. For the same sequence, the Kd (HLA-A*03:01; [9]) was 3.9 µM and the Kd (HLA-A*31:01; [9]) was 0.294 µM.

Work on RVMANNVKK yielded a Kd (HLA-A*11:01; [2]) of 0.0167 µM, a Kd (HLA-A*68:01; [2]) of 0.104 µM and a Kd (HLA-A*33:01; [2]) of no less than 77.7 µM. The Kd (HLA-A*03:01; [2]) was 0.0172 µM and the Kd (HLA-A*31:01; [2]) was 0.139 µM.

With AIFLTTLSR the Kd (HLA-A*11:01; [7]) was 0.0657 µM and the Kd (HLA-A*03:01; [7]) was 0.0615 µM.

Sequence SILASSLLR has a Kd (HLA-A*11:01; [6]) of 0.125 µM and a Kd (HLA-A*03:01; [6]) of 0.722 µM.

For GVTATITPR, the Kd (HLA-A*31:01; [4]) was 0.0149 µM.

RQDLLVTFK showed a Kd (HLA-A*11:01; [8]) of 0.197 µM.

KLGEFGKAK showed a Kd (HLA-A*03:01; [7]) of 0.0221 µM.

FTTNIWMKFR gave a Kd (HLA-A*68:01; [4]) of 0.00173 µM, a Kd (HLA-A*33:01; [4]) of 0.0295 µM and a Kd (HLA-A*31:01; [4]) of 0.00157 µM.

Sequence ALAPPVNDLK has a Kd (HLA-A*03:01; [4]) of 0.0481 µM.

QVIAVEPGK gave a Kd (HLA-A*11:01; [8]) of 0.781 µM.

ECLRRRVTR gave a Kd (HLA-A*33:01; [4]) of 0.244 µM.

In the case of IGQMFETTMR, the Kd (HLA-A*33:01; [7]) is reported as 1.63 µM.

For ISNMLSIINK, the Kd (HLA-A*11:01; [6]) was 0.113 µM and the Kd (HLA-A*03:01; [6]) was 0.142 µM.

In the case of AINVLRGFRK, the Kd (HLA-A*11:01; [7]) is reported as 0.257 µM and the Kd (HLA-A*03:01; [7]) is reported as 0.0918 µM.

Work on WSLMYFHRR yielded a Kd (HLA-A*33:01; [6]) of 0.000235 µM and a Kd (HLA-A*31:01; [6]) of 0.000548 µM.

With ALLGKKKNPR the Kd (HLA-A*31:01; [4]) was 0.357 µM.

TYSDPLALR showed a Kd (HLA-A*33:01; [8]) of 0.00922 µM and a Kd (HLA-A*31:01; [8]) of no less than 77.9 µM.

In the case of NSALTLHWFR, the Kd (HLA-A*68:01; [10]) is reported as 0.00175 µM, the Kd (HLA-A*33:01; [10]) is reported as 0.00407 µM and the Kd (HLA-A*31:01; [10]) is reported as 0.00353 µM.

With FLSGRGLGK the Kd (HLA-A*03:01; [3]) was 0.091 µM.

KVIDLGCGR was tested, and the Kd (HLA-A*31:01; [8]) was 9.21 µM.

ECYVQRFFLR showed a Kd (HLA-A*68:01; [11]) of 0.279 µM, a Kd (HLA-A*33:01; [11]) of 0.0449 µM and a Kd (HLA-A*03:01; [11]) of 17.6 µM. The Kd (HLA-A*31:01; [11]) was 0.006 µM.

Sequence TTSLFLHLV has a Kd (HLA-A*33:01; [11]) of 2.26 µM and a Kd (HLA-A*03:01; [11]) of 15.3 µM.

With VVKDDPDHYK the Kd (HLA-A*68:01; [2]) was no less than 70.2 µM, the Kd (HLA-A*33:01; [2]) was no less than 70 µM and the Kd (HLA-A*31:01; [2]) was no less than 40.3 µM.

FTTNIWLKLR showed a Kd (HLA-A*68:01; [7]) of 0.0286 µM and a Kd (HLA-A*33:01; [7]) of 0.0683 µM.

ATLKNVTEVK was tested, and the Kd (HLA-A*11:01; [4]) was 0.279 µM.

With PMFAVGLLFR the Kd (HLA-A*33:01; [8]) was 0.0911 µM.

Work on MILMKMKKK yielded a Kd (HLA-A*03:01; [4]) of 0.0863 µM.

Work on FWKLVDRER yielded a Kd (HLA-A*33:01; [6]) of 0.0446 µM.

Sequence MLIYSMWGK has a Kd (HLA-A*11:01; [12]) of 0.00263 µM, a Kd (HLA-A*33:01; [12]) of 2.04 µM and a Kd (HLA-A*03:01; [12]) of 0.0106 µM. The Kd (HLA-A*31:01; [12]) was 0.459 µM.
